Biological target: the molecule itself
Experiment: X-ray crystal structure (self-association of subunits)
Excerpt: Native data, to 2.2 Å resolution, were collected at station 9.6 of the S.R.S. Daresbury, from crystals frozen at liquid nitrogen temperatures in a cryo-protecting solution comprising of mother liquor plus 20% glycerol. The structure was solved by multiple isomorphous replacement with anomalous scattering using three heavy atom derivatives. Table 1 details data collection and heavy atom statistics; the HKL package (Otwinowski, Z & Minor, W (1997) Methods Enzymol 276, 307-326), and the CCP4 (Acta Crystallogr D 50 (1994) 760-763) software suite were used for data processing and analysis. Heavy atom positions were derived from difference Patterson and difference Fourier calculations. The SHARP program (Fortelle E. d. -L. & Bricogne, G. (1997) Methods Enzymol 276, 472-494) was used to refine the heavy atom parameters and obtain initial phases, further heavy atom sites were identified from the residual map analysis available in SHARP. […]
The initial model of AMPDA was traced using the QUANTA package (Molecular Simulations Inc) and refined using all data to 2.2 Å with X-PLOR (Briinger, A. T. (1993) X-PLOR Version 3.1 A system for X-ray crystallography and NMR, Yale University Press, New Haven, Conn.). […] The current model has a Rcryst=21.2% and a Rfree=25.4%, calculated on 5% of the data set (Branger, A. T. (1992) Nature 355, 472-475).

B1: rabbit AMP deaminase (AMPDA) catalytic domain, starting at Leu96 (enzyme)
chain: LSHIDEYISLSPTYQTVPDFQRVQITGDYASGVTVEDFEIVCKGLYRALCIREKYMLKSFQRFPKTPSKYLRSIEGTAWKANESSYPVFTPALKKGEDPFRTDNLPENLGYHLKMKDGVVYIYANEAAAGKDEPKPLLYPNMEEFLDDMNFLLALIAQGPVKTYTHRRLKFLSSKFQVHQMLNEMDELKELKNNPHRDFYNCRKVDTHIHAAACMNQKHLLRFIKKSYQVDADRVVYSTKEKNLTLKQLFDKLKLHPYDLTVDSLDVHAGRQTFQRFDKFNDKYNPVGASELRDLYLKTDNYINGEYFATIIKEVGADLVDAKYQHAEPRLSIYGRSPDEWSKLSSWFVRNRIYSSNMTWMIQVPRIYDVFRSKNFLPHFGKMLENVFMPVFEATINPQAHPELSVFLKHITGFDSVDDESKHSGHMFSSKSPKPQEWTLEKNPSYTYYAYYMYANIMVLNSLRKERGMNTFLFRPHCGEVGALTHLMTAFMTADNISHGLNLKKSPVLQYLFFLAQIPIAMSPLSNNSLFLEYAKNPFLDFLQKGLMISLSTDDPMQFHFTKEPLMEEYAIAAQVFKLSTCDMCEVARNSVLQCGISHEEKAKFLGNNYLEEGPIGNDIRKTNVAQIRMAYRYETWCYELNLIAEGLKSTE
notes: Purified from rabbit skeletal muscle; also called rabbit AMPDA; truncated enzyme
  binding result: binds

Source: US20040050316A1 (published 2004)
